Molecular target: T1, ADAAD T560A (Bos taurus (bovine), UniProt Q9TTA5 221-940, T780A)
T1 sequence: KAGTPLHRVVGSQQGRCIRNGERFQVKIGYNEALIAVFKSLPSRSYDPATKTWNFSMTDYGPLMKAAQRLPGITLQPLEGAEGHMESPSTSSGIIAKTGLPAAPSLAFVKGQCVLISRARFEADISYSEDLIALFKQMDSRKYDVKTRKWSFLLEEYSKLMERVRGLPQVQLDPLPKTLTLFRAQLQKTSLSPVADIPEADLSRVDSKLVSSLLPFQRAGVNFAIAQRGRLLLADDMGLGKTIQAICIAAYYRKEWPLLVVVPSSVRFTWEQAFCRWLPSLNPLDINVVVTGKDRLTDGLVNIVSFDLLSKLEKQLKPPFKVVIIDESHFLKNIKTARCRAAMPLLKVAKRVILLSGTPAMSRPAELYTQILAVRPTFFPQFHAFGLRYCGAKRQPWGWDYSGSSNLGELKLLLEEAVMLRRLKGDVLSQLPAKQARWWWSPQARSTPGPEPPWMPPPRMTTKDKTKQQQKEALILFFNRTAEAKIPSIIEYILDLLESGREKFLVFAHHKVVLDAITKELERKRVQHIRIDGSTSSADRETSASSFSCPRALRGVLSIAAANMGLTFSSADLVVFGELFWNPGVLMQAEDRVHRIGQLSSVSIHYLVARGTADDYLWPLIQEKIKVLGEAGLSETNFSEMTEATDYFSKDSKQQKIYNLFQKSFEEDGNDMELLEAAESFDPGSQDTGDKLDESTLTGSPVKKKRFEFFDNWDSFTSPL
Experiment: intrinsic tryptophan fluorescence titration; saturating ATP; Fluorescence titration (ex 295 nm, em 340 nm), one-site saturation fit; buffer, salt, pH and temperature not given in the material. Wild-type ADAAD Kd values are cited from ref 24 and not listed
Conditions: protein: recombinant; tags: His (Ni-NTA, pET-14b); hairpin

B1: slDNA (stem-loop DNA) (structured_DNA)
DNA: GCGCAATTGCGCTCGACGATTTTTTAGCGCAATTGCGC
Which Kd does the source give for B1 here?
The Kd was 1.4 ± 0.3 nM.
